Measurements as given in patent US20140199242A1.

Target: MUC4 protein (endogenous human MUC4 of pancreatic cancer cells and tumor tissue) (human) (UniProt Q99102)
Test: flow cytometry, cell-surface staining of paraformaldehyde-fixed unpermeabilized cells (cell line not given), 1 µg antibody/10^6 cells, FITC anti-mouse secondary

anti-KLH antibody K2G6 was tested, and the MFI (mean fluorescence intensity) was 14.2.

For anti-MUC4 TR MAb 8G7 (antibody), the MFI (mean fluorescence intensity) was 23.1.
